Literature values in patent publication US12065466B2, “Methods and compositions for protein sequencing” (Quantum-Si Incorporated, priority 2020, dated 2024).

tested on: amino acid at a terminal position of a polypeptide; conditions: Table 2; amino acid identity at a terminal position (phosphotyrosine also internal); inferred from literature and/or demonstrated by the inventors; cited from earlier work

Molecule | Binding Pref.
PS537: UBR-box domain homolog, SEQ ID NO: 165 (protein, listed as Aedes aegypti) MVCGRVFKIGEPTYSCRECSMDPTCVLCSSCFKKSSHRLHKYKMSTSGGGGCCDCGDHEAWKRDPSCEEHAV | K, R, H
PS618: UBR-box domain homolog, SEQ ID NO: 178 (protein, listed as Zygosaccharomyces bailii) MNASHKGAMCSKQCYPTETVFYCFTCTTNPLYEICESCFDEEKHRGHLYTAKVVVRPEGRVCHCGDPFVFKEPRFAFLCKN | K, R, H
PS540: UBR-box domain homolog, SEQ ID NO: 169 (protein, listed as Clathrospora elynae) MPCGHIFKNGEATYRCKTCTADDTCVLCARCFDASDHEGHQVFVSVSPGNSGCCDCGDDEAWVRPVHCNMHSA | K, R, H
PS542: UBR-box domain homolog, SEQ ID NO: 171 (protein, listed as Trichuris suis) MRCNHVFANGEATYSCRGCAADPTCVLCASCFELSAHKEHKYMITTSSGTGYCDCGDPEAWKADPFCQQHQP | K, R, H
PS615: UBR-box domain homolog, SEQ ID NO: 175 (protein, listed as Kluyveromyces marxianus) MVNEHRGSQCSKQCHGTETVYYCFDCTKNPLYEICEECFDETQHMGHRYTSRVVTRPEGKVCHCGDISGYNNPEKAFQCKI | K, R, H
PS616: UBR-box domain homolog, SEQ ID NO: 176 (protein, listed as Kluyveromyces lactis) MHNDHRGSQCSKQCHGTETVYYCFDCTKNPLYEICEDCFDESQHIGHRYTSRVVTRPEGKVCHCGDISSYNDPKKAFQCRI | K, R, H
PS620: UBR-box domain homolog, SEQ ID NO: 180 (protein, listed as Saccharomyces cerevisiae) MGNMHIGTACTRLCFPSETIYYCFTCSTNPLYEICELCFDKEKHVNHSYVAKVVMRPEGRICHCGDPFAFNDPSDAFKCKN | K, R, H
PS623: UBR-box domain homolog, SEQ ID NO: 183 (protein, listed as Kazachstania naganishii) MSKQFRHKGRNCGRKFRLGEPLYRCQECGYDDTCVLCINCFNPKDHEGHHIYTDICNDFTSGICDCGDEEAWLSPLHCKAEED | K, R, H
PS617: UBR-box domain homolog, SEQ ID NO: 177 (protein, listed as Eremothecium sinecaudum) MPKEHRGTSCNKHCQPTETVYYCFDCTKNPLYEICEECFDADKHLGHRWTSKVVSRPEGKICHCGDPSGLTDPENGYECKN | K, R, H
PS539: UBR-box domain homolog, SEQ ID NO: 168 (protein, listed as Kazachstania africana) MQTSFTHKGRNCGRKFKVGEPLYRCHECGFDDTCVLCIHCFNPADHENHHIYTDICNDFTSGICDCGDTEAWNGDLHCKAEEI | K, R, H
PS25: SEQ ID NO: 167 (protein, listed as Saccharomyces cerevisiae) MGSVHKHTGRNCGRKFKIGEPLYRCHECGCDDTCVLCIHCFNPKDHVNHHVCTDICTEFTSGICDCGDEEAWNSPLHCKAEEQ | K, R, H
PS625: UBR-box domain homolog, SEQ ID NO: 185 (protein, listed as Saccharomyces eubayanus) MGDVHKHTGRNCGRKFKIGEPLYRCHECGCDDTCVLCIHCFNPKDHINHHVCTDICSEFTSGICDCGDEEAWNSSLHCKAEEQ | K, R, H
PS544: UBR-box domain homolog, SEQ ID NO: 173 (protein, listed as Homo sapiens) MGPLGSLCGRVFKSGETTYSCRDCAIDPTCVLCMDCFQDSVHKNHRYKMHTSTGGGFCDCGDTEAWKTGPFCVNHEP | K, R, H
PS619: UBR-box domain homolog, SEQ ID NO: 179 (protein, listed as Vanderwaltozyma polyspora) MENLHIGSCCNRQCYPTQTVYYCLTCTINPLYEICELCFDEDKHVGHTYISKSVIRPEGKVCHCGNPNVFKKPEFAFNCKN | K, R, H
PS541: UBR-box domain homolog, SEQ ID NO: 170 (protein, Aspergillus neoniger) MRCGHIFRAGEATYRCITCAADDTCVLCSRCFDASDHTGHQYQISLSSGNCGCCDCGDEEAWRLPLFCAIHTD | K, R, H
PS622: UBR-box domain homolog, SEQ ID NO: 182 (protein, listed as Kluyveromyces dobzhanskii) MHSRFNHAGRICASKFKVGEPIYRCKECSFDDTCVICVNCFNPKDHVGHHVYTSICSEFNNGICDCGDTEAWNHDMHCKADEN | K, R, H
Homo sapiens UBR2: SEQ ID NO: 174 (protein, listed as Homo sapiens) MGPLGSLCGRVFKVGEPTYSCRDCAVDPTCVLCMECFLGSIHRDHRYRMTTSGGGGFCDCGDTEAWKEGPYCQKHE | K, R, H
PS626: UBR-box domain homolog, SEQ ID NO: 186 (protein, listed as Zygosaccharomyces parabailii) MYHVYKHSGRNCGRKFKVGEPIYRCHECGYDETCVLCIHCFNPKDHDSHHVYIDICSEFSTGICDCGDTEAFVNPLHCKAEED | K, R, H
PS624: UBR-box domain homolog, SEQ ID NO: 184 (protein, listed as Eremothecium sinecaudum) MPKNHNHKGRNCGRSFQPGEPLYRCQECAYDDTCVLCIRCFNPLDHVNHHVSTHICSEFNDGICDCGDVEAWNVELNCKAEED | K, R, H
PS627: UBR-box domain homolog, SEQ ID NO: 187 (protein, listed as Zygosaccharomyces mellis) MPKYHQHSGRYCGRKFKVGEPIYRCHECGFDETCVICIHCFNAKDHETHHVSVSICSEYSTGICDCGDTEAFVNPLHCRAEEV | K, R, H
PS534: UBR-box domain homolog, SEQ ID NO: 162 (protein, Schizosaccharomyces pombe) MKCGHIFRKGEVFYRCKTCSVDSNSALCVKCFRATSHKDHETSFTVSAGSGGCCDCGNAAAWIGDVSCKIHSH | K, R, H
PS536: UBR-box domain homolog, SEQ ID NO: 164 (protein, listed as Aphis gossypii) MVCGRVFKMGEPTYNCRECGMDSTCVLCVDCFKRSPHKNHKYKMGTSYGGGCCDCGDVEAWKHDPYCQTHKL | K, R, H
PS543: UBR-box domain homolog, SEQ ID NO: 172 (protein, listed as Trichinella spiralis) MKCNRQLICGEPTYCCLDCACDQTCIFCHACFQSSEHKNHRYSMSTSEGSGTCDCGDKEAWKSNYYCLNHKP | K, R, H
